This passage reports Kd results from article PMC5312616, “A Cholecystokinin B Receptor-Specific DNA Aptamer for Targeting Pancreatic Ductal Adenocarcinoma”.

Series [1] concerns the target CCKBR (Homo sapiens) (UniProt P32239). The conditions noted are these: cited from earlier work.
Series [2] addresses T1, CCKBR N-terminal peptide BR5-21 (human, UniProt P32239 5-21).
T1 chain: KLNRSVQGTGPGPGASL
Kind of series: not stated in material; Kd assay buffer and method not given in material; SELEX peptide-bead incubation 60 min at 37 C.

Where two headings read alike, the source gives them in different places.

A word on the Kd: it is the constant that tells how readily two partners part at equilibrium.

Chain of CCKBR (Homo sapiens) (P32239 whole entry): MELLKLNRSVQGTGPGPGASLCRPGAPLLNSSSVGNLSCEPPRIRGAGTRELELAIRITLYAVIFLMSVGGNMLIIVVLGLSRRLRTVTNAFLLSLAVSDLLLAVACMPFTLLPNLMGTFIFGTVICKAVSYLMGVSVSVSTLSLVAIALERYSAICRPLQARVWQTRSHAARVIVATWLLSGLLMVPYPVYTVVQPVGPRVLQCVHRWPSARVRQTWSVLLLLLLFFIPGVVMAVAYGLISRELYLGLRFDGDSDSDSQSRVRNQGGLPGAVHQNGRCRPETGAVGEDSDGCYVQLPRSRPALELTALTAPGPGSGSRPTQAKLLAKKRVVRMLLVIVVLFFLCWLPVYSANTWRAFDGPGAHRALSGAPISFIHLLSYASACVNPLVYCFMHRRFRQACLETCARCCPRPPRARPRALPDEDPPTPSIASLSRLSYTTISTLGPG

gastrin (from UniProt P01350): the Kd in series [1] is 1 nM. Regarding CATGGTGCAGGTGTGGCTGGGATTCATTTGCCGGTGCTGGTGCGTCCGC (ssDNA) [AP1153 truncated (49 nt)], the Kd in series [2] worked out at 0.206 nM.

B1: AP1153 (66 nt) (ssDNA)
DNA: CATGGTGCAGGTGTGGCTGGGATTCATTTGCCGGTGCTGGTGCGTCCGCGGCCGCTAATCCTGTTC
Consider B1, for which the Kd in series [2] (Mfold-predicted folded structure) is 0.0155 nM.
